Results on 16 molecules are retold here after patent US20150344570A1 (published 2015).

The labels stand for the following.
T1: FcγRIIb extracellular domain with C-terminal His tag (human, UniProt P31994 43-217)
T1 construct: extracellular domain; also called FcgRIIb; 2b; not shown: His tag at the C terminus
T1 sequence (looked up): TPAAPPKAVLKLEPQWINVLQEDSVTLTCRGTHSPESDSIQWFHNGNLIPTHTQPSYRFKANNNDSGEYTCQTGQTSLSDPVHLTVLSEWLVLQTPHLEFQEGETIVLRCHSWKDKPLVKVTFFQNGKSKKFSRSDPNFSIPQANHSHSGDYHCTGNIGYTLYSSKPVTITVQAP

B1: GpH7-A5/GpH7-B3 variant H268_09D/GpL16-k0 (antibody, human IgG1, kappa)
heavy 1: not shown
heavy 2: not shown
light: DIVMTQSPLSLPVTPGEPASISCQASESLVHSNRNTYLHWYLQKPGQSPQLLIYKVSNRFSGVPDRFSGSGSGTDFTLKISRVEAEDVGVYYCSQNTHVPPTFGQGTKVEIERTVAAPSVFIFPPSDEQLKSGTASVVCLLNNFYPREAKVQWKVDNALQSGNSQESVTEQDSKDSTYSLSSTLTLSKADYEKHKVYACEVTHQGLSSPVTKSFNRGEC
notes: also called He Ab H268_09D
B2: GpH7-A5/GpH7-B3 variant I332_15Y/GpL16-k0 (antibody, human IgG1, kappa)
heavy 1: not shown
heavy 2: not shown
light: DIVMTQSPLSLPVTPGEPASISCQASESLVHSNRNTYLHWYLQKPGQSPQLLIYKVSNRFSGVPDRFSGSGSGTDFTLKISRVEAEDVGVYYCSQNTHVPPTFGQGTKVEIERTVAAPSVFIFPPSDEQLKSGTASVVCLLNNFYPREAKVQWKVDNALQSGNSQESVTEQDSKDSTYSLSSTLTLSKADYEKHKVYACEVTHQGLSSPVTKSFNRGEC
notes: also called He Ab I332_15Y
B3: GpH7-A5/GpH7-B3 variant K326_04F/GpL16-k0 (antibody, human IgG1, kappa)
heavy 1: not shown
heavy 2: not shown
light: DIVMTQSPLSLPVTPGEPASISCQASESLVHSNRNTYLHWYLQKPGQSPQLLIYKVSNRFSGVPDRFSGSGSGTDFTLKISRVEAEDVGVYYCSQNTHVPPTFGQGTKVEIERTVAAPSVFIFPPSDEQLKSGTASVVCLLNNFYPREAKVQWKVDNALQSGNSQESVTEQDSKDSTYSLSSTLTLSKADYEKHKVYACEVTHQGLSSPVTKSFNRGEC
notes: also called He Ab K326_04F
B4: GpH7-A5/GpH7-B3 variant K326_08L/GpL16-k0 (antibody, human IgG1, kappa)
heavy 1: not shown
heavy 2: not shown
light: DIVMTQSPLSLPVTPGEPASISCQASESLVHSNRNTYLHWYLQKPGQSPQLLIYKVSNRFSGVPDRFSGSGSGTDFTLKISRVEAEDVGVYYCSQNTHVPPTFGQGTKVEIERTVAAPSVFIFPPSDEQLKSGTASVVCLLNNFYPREAKVQWKVDNALQSGNSQESVTEQDSKDSTYSLSSTLTLSKADYEKHKVYACEVTHQGLSSPVTKSFNRGEC
notes: also called He Ab K326_08L
B5: GpH7-A5/GpH7-B3 variant I332_09D/GpL16-k0 (antibody, human IgG1, kappa)
heavy 1: not shown
heavy 2: not shown
light: DIVMTQSPLSLPVTPGEPASISCQASESLVHSNRNTYLHWYLQKPGQSPQLLIYKVSNRFSGVPDRFSGSGSGTDFTLKISRVEAEDVGVYYCSQNTHVPPTFGQGTKVEIERTVAAPSVFIFPPSDEQLKSGTASVVCLLNNFYPREAKVQWKVDNALQSGNSQESVTEQDSKDSTYSLSSTLTLSKADYEKHKVYACEVTHQGLSSPVTKSFNRGEC
notes: also called He Ab I332_09D
B6: GpH7-A5/GpH7-B3 variant I332_10E/GpL16-k0 (antibody, human IgG1, kappa)
heavy 1: not shown
heavy 2: not shown
light: DIVMTQSPLSLPVTPGEPASISCQASESLVHSNRNTYLHWYLQKPGQSPQLLIYKVSNRFSGVPDRFSGSGSGTDFTLKISRVEAEDVGVYYCSQNTHVPPTFGQGTKVEIERTVAAPSVFIFPPSDEQLKSGTASVVCLLNNFYPREAKVQWKVDNALQSGNSQESVTEQDSKDSTYSLSSTLTLSKADYEKHKVYACEVTHQGLSSPVTKSFNRGEC
notes: also called He Ab I332_10E
B7: GpH7-A5/GpH7-B3 variant H268_13S/GpL16-k0 (antibody, human IgG1, kappa)
heavy 1: not shown
heavy 2: not shown
light: DIVMTQSPLSLPVTPGEPASISCQASESLVHSNRNTYLHWYLQKPGQSPQLLIYKVSNRFSGVPDRFSGSGSGTDFTLKISRVEAEDVGVYYCSQNTHVPPTFGQGTKVEIERTVAAPSVFIFPPSDEQLKSGTASVVCLLNNFYPREAKVQWKVDNALQSGNSQESVTEQDSKDSTYSLSSTLTLSKADYEKHKVYACEVTHQGLSSPVTKSFNRGEC
notes: also called He Ab H268_13S
B8: GpH7-A5/GpH7-B3 variant I336_08L/GpL16-k0 (antibody, human IgG1, kappa)
heavy 1: not shown
heavy 2: not shown
light: DIVMTQSPLSLPVTPGEPASISCQASESLVHSNRNTYLHWYLQKPGQSPQLLIYKVSNRFSGVPDRFSGSGSGTDFTLKISRVEAEDVGVYYCSQNTHVPPTFGQGTKVEIERTVAAPSVFIFPPSDEQLKSGTASVVCLLNNFYPREAKVQWKVDNALQSGNSQESVTEQDSKDSTYSLSSTLTLSKADYEKHKVYACEVTHQGLSSPVTKSFNRGEC
notes: also called He Ab I336_08L
B9: GpH7-A5/GpH7-B3 variant I332_04F/GpL16-k0 (antibody, human IgG1, kappa)
heavy 1: not shown
heavy 2: not shown
light: DIVMTQSPLSLPVTPGEPASISCQASESLVHSNRNTYLHWYLQKPGQSPQLLIYKVSNRFSGVPDRFSGSGSGTDFTLKISRVEAEDVGVYYCSQNTHVPPTFGQGTKVEIERTVAAPSVFIFPPSDEQLKSGTASVVCLLNNFYPREAKVQWKVDNALQSGNSQESVTEQDSKDSTYSLSSTLTLSKADYEKHKVYACEVTHQGLSSPVTKSFNRGEC
notes: also called He Ab I332_04F
B10: GpH7-A5/GpH7-B3 variant K326_03V/GpL16-k0 (antibody, human IgG1, kappa)
heavy 1: not shown
heavy 2: not shown
light: DIVMTQSPLSLPVTPGEPASISCQASESLVHSNRNTYLHWYLQKPGQSPQLLIYKVSNRFSGVPDRFSGSGSGTDFTLKISRVEAEDVGVYYCSQNTHVPPTFGQGTKVEIERTVAAPSVFIFPPSDEQLKSGTASVVCLLNNFYPREAKVQWKVDNALQSGNSQESVTEQDSKDSTYSLSSTLTLSKADYEKHKVYACEVTHQGLSSPVTKSFNRGEC
notes: also called He Ab K326_03V
B11: GpH7-A5/GpH7-B3 variant K326_09D/GpL16-k0 (antibody, human IgG1, kappa)
heavy 1: not shown
heavy 2: not shown
light: DIVMTQSPLSLPVTPGEPASISCQASESLVHSNRNTYLHWYLQKPGQSPQLLIYKVSNRFSGVPDRFSGSGSGTDFTLKISRVEAEDVGVYYCSQNTHVPPTFGQGTKVEIERTVAAPSVFIFPPSDEQLKSGTASVVCLLNNFYPREAKVQWKVDNALQSGNSQESVTEQDSKDSTYSLSSTLTLSKADYEKHKVYACEVTHQGLSSPVTKSFNRGEC
notes: also called He Ab K326_09D
B12: GpH7-A5/GpH7-B3 variant K326_06M/GpL16-k0 (antibody, human IgG1, kappa)
heavy 1: not shown
heavy 2: not shown
light: DIVMTQSPLSLPVTPGEPASISCQASESLVHSNRNTYLHWYLQKPGQSPQLLIYKVSNRFSGVPDRFSGSGSGTDFTLKISRVEAEDVGVYYCSQNTHVPPTFGQGTKVEIERTVAAPSVFIFPPSDEQLKSGTASVVCLLNNFYPREAKVQWKVDNALQSGNSQESVTEQDSKDSTYSLSSTLTLSKADYEKHKVYACEVTHQGLSSPVTKSFNRGEC
notes: also called He Ab K326_06M
B13: GpH7-A5/GpH7-B3 variant H268_18N/GpL16-k0 (antibody, human IgG1, kappa)
heavy 1: not shown
heavy 2: not shown
light: DIVMTQSPLSLPVTPGEPASISCQASESLVHSNRNTYLHWYLQKPGQSPQLLIYKVSNRFSGVPDRFSGSGSGTDFTLKISRVEAEDVGVYYCSQNTHVPPTFGQGTKVEIERTVAAPSVFIFPPSDEQLKSGTASVVCLLNNFYPREAKVQWKVDNALQSGNSQESVTEQDSKDSTYSLSSTLTLSKADYEKHKVYACEVTHQGLSSPVTKSFNRGEC
notes: also called He Ab H268_18N
B14: GpH7-A5/GpH7-B3 variant I332_14T/GpL16-k0 (antibody, human IgG1, kappa)
heavy 1: not shown
heavy 2: not shown
light: DIVMTQSPLSLPVTPGEPASISCQASESLVHSNRNTYLHWYLQKPGQSPQLLIYKVSNRFSGVPDRFSGSGSGTDFTLKISRVEAEDVGVYYCSQNTHVPPTFGQGTKVEIERTVAAPSVFIFPPSDEQLKSGTASVVCLLNNFYPREAKVQWKVDNALQSGNSQESVTEQDSKDSTYSLSSTLTLSKADYEKHKVYACEVTHQGLSSPVTKSFNRGEC
notes: also called He Ab I332_14T
B15: GpH7-A5/GpH7-B3 variant I332_06M/GpL16-k0 (antibody, human IgG1, kappa)
heavy 1: not shown
heavy 2: not shown
light: DIVMTQSPLSLPVTPGEPASISCQASESLVHSNRNTYLHWYLQKPGQSPQLLIYKVSNRFSGVPDRFSGSGSGTDFTLKISRVEAEDVGVYYCSQNTHVPPTFGQGTKVEIERTVAAPSVFIFPPSDEQLKSGTASVVCLLNNFYPREAKVQWKVDNALQSGNSQESVTEQDSKDSTYSLSSTLTLSKADYEKHKVYACEVTHQGLSSPVTKSFNRGEC
notes: also called He Ab I332_06M
B16: GpH7-A5/GpH7-B3 variant H268_10E/GpL16-k0 (antibody, human IgG1, kappa)
heavy 1: not shown
heavy 2: not shown
light: DIVMTQSPLSLPVTPGEPASISCQASESLVHSNRNTYLHWYLQKPGQSPQLLIYKVSNRFSGVPDRFSGSGSGTDFTLKISRVEAEDVGVYYCSQNTHVPPTFGQGTKVEIERTVAAPSVFIFPPSDEQLKSGTASVVCLLNNFYPREAKVQWKVDNALQSGNSQESVTEQDSKDSTYSLSSTLTLSKADYEKHKVYACEVTHQGLSSPVTKSFNRGEC
notes: also called He Ab H268_10E

This experiment addresses T1, FcγRIIb extracellular domain with …. The experiment is described as follows: SPR, relative binding, HeCon Ab = 100. How it is done:
Analysis of interaction between objective antibody and the FcγR was carried out using Biacore T100 (GE Healthcare). HBS-EP+ (GE Healthcare) was used as the running buffer, and the measurement temperature was set to 25° C. Chips produced by immobilizing the antigen peptide by the amine coupling method to a Series S Sencor Chip CM5 (GE Healthcare), or alternatively, chips produced by allowing preliminarily biotinylated antigen peptides to interact with and immobilize onto a Series S Sensor Chip SA (certified) (GE Healthcare) were used. Antibodies of interest were captured onto an antigen peptide-immobilized chip, and allowed to interact to each FcγR diluted with running buffer. To regenerate and repeatedly use the chip, the antibodies captured on the chip were washed off by reacting 10 mM glycine-HCl, pH 1.5.
Background: Surface plasmon resonance follows binding to a sensor surface in real time, without labels.
Regarding B1, the He/Con_2b was 239 % of control.

On to B2, for which the He/Con_2b is 101 % of control.

B3: the He/Con_2b was 155 % of control.

Take B4: the He/Con_2b was 177 % of control.

On to B5, for which the He/Con_2b was 147 % of control.

With B6, the He/Con_2b is 142 % of control.

Regarding B7, the He/Con_2b was 160 % of control.

On to B8, for which the He/Con_2b is 107 % of control.

In the case of B9, the He/Con_2b was 104 % of control.

Regarding B10, the He/Con_2b was 175 % of control.

For B11, the He/Con_2b is 193 % of control.

With B12, the He/Con_2b is 165 % of control.

As to B13, the He/Con_2b was 156 % of control.

B14: the He/Con_2b is 106 % of control.

B15: the He/Con_2b is 105 % of control.

For the molecule B16, the He/Con_2b was 230 % of control.
